Measurements reported in patent US20040086848A1 (University of Texas, published 2004).
Positions count from the first letter of the chain named. In names and notes the source's numbering stands. Blank lines part the entries; values can stand above or below the binder they belong to.

Assays:
[1] = target: T1, endogenous RANK of RAW264.7 cells (mouse, UniProt O35305 31-625); experiment: interaction with endogenous RANK in RAW cells (data not shown)
T1 construct: whole, on cells; Immunoprecipitated from cell lysates with anti-RANK; The species follows from the mouse cell line
T1 sequence (looked up): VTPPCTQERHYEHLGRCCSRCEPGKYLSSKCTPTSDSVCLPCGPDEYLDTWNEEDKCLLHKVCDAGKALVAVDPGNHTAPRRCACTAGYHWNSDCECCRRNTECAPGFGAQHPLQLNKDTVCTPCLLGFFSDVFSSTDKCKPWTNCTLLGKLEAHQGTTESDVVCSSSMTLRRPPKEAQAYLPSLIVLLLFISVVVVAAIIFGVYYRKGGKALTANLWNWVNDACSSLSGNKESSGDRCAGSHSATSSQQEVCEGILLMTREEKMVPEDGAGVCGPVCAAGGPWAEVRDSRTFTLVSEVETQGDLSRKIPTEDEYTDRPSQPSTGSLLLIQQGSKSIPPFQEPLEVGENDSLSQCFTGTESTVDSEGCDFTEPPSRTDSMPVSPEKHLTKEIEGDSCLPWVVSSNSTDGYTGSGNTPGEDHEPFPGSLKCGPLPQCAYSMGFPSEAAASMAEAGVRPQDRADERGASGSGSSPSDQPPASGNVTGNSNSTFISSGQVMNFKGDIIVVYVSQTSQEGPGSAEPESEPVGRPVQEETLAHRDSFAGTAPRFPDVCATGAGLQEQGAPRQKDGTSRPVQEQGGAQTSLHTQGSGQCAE

[2] = target: the molecule itself; experiment: gel filtration chromatography

- binding result [1]: binds
B1: RAIN mutant K90/91A (from pCMV3×FLAG-hRAIN, stably expressed in RAW cells) (other, human, UniProt Q96GX9 1-242, looked up)
chain: MSGCDAREGDCCSRRCGAQDKEHPRYLIPELCKQFYHLGWVTGTGGGISLKHGDEIYIAPSGVQKERIQPEDMFVCDINEKDISGPSPSAALKKSQCTPLFMNAYTMRGAGAVIHTHSKAAVMATLLFPGREFKITHQEMIKGIKKCTSGGYYRYDDMLVVPIIENTPEEKDLKDRMAHAMNEYPDSCAVLVRRHGVYVWGETWEKAKTMCECYDYLFDIAVSMKKVGLDPSQLPVGENGIV
notes: range 1-242; not shown: 3×FLAG tag of pCMV3×FLAG-14 at the C-terminus
- binding result [2]: binds

- binding result [1]: binds
B2: RAIN mutant R194A (from pCMV3×FLAG-hRAIN, stably expressed in RAW cells) (other, human, UniProt Q96GX9 1-242, looked up)
chain: B1 chain with A90K, A91K, R194A
notes: as for B1
- binding result [2]: binds
